The source of these data is patent US20240059758A1 (published 2024).

Like-named read-outs stand apart in the source and are kept apart here.

Assay [1] has as its target T1, RBD-mFc (UniProt P0DTC2 319-591). The assay is described as follows: ELISA. In general terms: In an ELISA, binding on a coated surface is turned into a signal by an enzyme label.
Assay [2] has as its target T2, S1-mFc (UniProt P0DTC2 14-694). The experiment in a line: ELISA.
For assay [3], the target named is T3, receptor binding domain (RBD) of the S1-subunit of SARS-CoV-2 glycoprotein S (UniProt P0DTC2 319-541). The assay is described as follows: flow.
Assay [4] has as its target T3, receptor binding domain (RBD) of the …. The experiment in a line: flow. This is another data set of the same source.
For assay [5], the target named is T1, RBD-mFc. The experiment in a line: ELISA. The source holds these as a separate data set.
In assay [6] the target is T2, S1-mFc. The assay is described as follows: ELISA. This is another data set of the same source.
For another assay, the target named is S1- (UniProt P0DTC2 14-1210). The assay is described as follows: ELISA.

B1: STE73-6B10 (antibody, V domains shown)
VH: QVQLVQSGAEVKKPGASVKVSCKASGYTFTSYGISWVRQAPGQGLEWMGWINPNSGGTNYAQKFQGRVTMTRDTSISTAYMELSRLRSDDTAVYYCARDRLRYGDSGSYYYYGMDVWGQGTTVTVSS
VL: QSALTQPRSVSGSPGQSVTISCTGTSSDVGGYNYVSWYQQHPGKAPKLLISEVTRRPSGVPDRFSGSKSGNTASLTVSGLQTEDEADYYCGSYAGSNTWVFGGGTKLTVL
One may read the EC50 as the concentration that produces a half-maximal response. One may read the IC50 as the concentration needed to halve the response being measured. Low readings indicate greater potency, high ones weaker potency. Consider B1, for which the EC50 in the assay with RBD-mFc [1] is 17.3 nM; in the assay with S1-mFc [2] it was 15.3 nM. The molecule also registered an IC50 in assay [3] of 73 nM.

B2: STE73-2B2 (antibody, V domains shown)
VH: QVQLVQSGAEVKKPGASVKVSCKASGYTFTGYYMHWVRQAPGQGLEWMGWINPNSGGTNYAQKFQGRVTITRDTSASTAYMELSSLRSEDTAVYYCARVSGWYFGAFDIWGQGTMVTVSS
VL: LPVLTQPHSLSESPGKTVNISCTGSSGSIASNYVQWYQQRPGSAPTTVIYEDSHRPSGVPDRFSGSIDSSSNSASLSISGLKTEDEADYYCQSYDSSNNQWVFGGGTKLTVL
As to B2, the EC50 in the assay with RBD-mFc [1] amounted to 0.5 nM; in the assay with S1-mFc [2] it was 0.8 nM. Besides, the IC50 in assay [3] came to 1.7 nM.

B3: STE72-1B6 (antibody, V domains shown)
VH: QVKLVQSGGGLVQPGGSLRLSCAASGFTFSSYAMSWVRQAPGKGLEWVSGISGSGGSTYYADSVKGRFTISRDNSKNTLYLQVNSLRAEDTAVYYCAKAPYGDFRGLWYFDYWGQGTLVTVSS
VL: DIVMTQSPFSVSASVGDRVTISCRASQDIRSWLAWYQQKPGKAPQLLIYDASSLQSGVPSRFSGSGSGTDFTLTISSLQPEDFATYYCQQADSVPLTFGGGTKVEIQ
Turning to B3, the IC50 in assay [4] was 4.8 nM. In addition, the concentration for a half-maximal effect (EC50) was 1.6 nM with RBD-mFc [5] and 2.2 nM with S1-mFc [6].

B4: STE73-2C2 (antibody, V domains shown)
VH: QVQLVESGGGLVQPGGSLRLSCAASGITVSSNYMSWVRQAPGKGLEWVSVIYSGGSTFYADSVKGRFTISRDNSKNTLYLQMNSLRAEDTGVYYCARGHDNLDYWGQGTLVTVSS
VL: LPVLTQPHSVSESPGKTVIISCTGSSDSIASNYVQWYQQRPGSAPTTVIYEDNKRPSGVPDRFSGSTDSSSNSASLTISGLKTEDEAEYYCQSYDSNNHWVFGGGTKLTVL
On to B4, for which the EC50 with RBD-mFc [1] stood at 9.6 nM; with S1-mFc [2], 17.9 nM. The IC50 in assay [3] came out at 3 nM.

B5: STE72-8A2 (antibody, V domains shown)
VH: QVQLVQSGAEVKKPGASVKVSCKASGYTFTSYGISWVRQAPGQGLEWMGWISAYNGNTNYAQKLQGRVTMTTDTSTSTAYMELRSLRSDDTAVYYCARFFYDSSGYSTDYWGQGTLVTVSS
VL: not shown
The molecule B5 came in with a 50% inhibitory concentration (IC50) in assay [4] of 1.5 nM. Moreover, the EC50 stood at 1.5 nM with RBD-mFc [5] and 2.3 nM with S1-mFc [6].

B6: STE72-2G4 (antibody, V domains shown)
VH: QVQLVQSGAEVKKPGASVKVSCKASGYTFTSYGISWVRQAPGQGLEWMGWISAYNGNTNYAQKLQGRVTMTTDTSTSTAYMELRSLRSDDTAVYYCARFFYDSSGYSTDYWGQGTLVTVSS
VL: ETTLTQSPAFMSVTPGDRAILSCRASQSVDSHLAWYHQKPGQPPRLLIYGASTRATGIPARFSGSRSGTEFTLTISGLQSEDLGVYYCQQYASWPPGYNFGQGTKLEIK
B6 had an IC50 in assay [4] of 3.7 nM. For the same molecule, the EC50 in the assay with RBD-mFc [5] is 0.7 nM; in the assay with S1-mFc [6], 0.9 nM.

B7: STE72-8A6 (antibody, V domains shown)
VH: QVQLVQSGAEVKKPGASVKVSCKASGYTFTSYGISWVRQAPGQGLEWMGWISAYNGNTNYAQKLQGRVTMTTDTSTSTAYMELRSLRSDDTAVYYCARFFYDSSGYSTDYWGQGTLVTVSS
VL: DIVMTQSPSTLSASVGDRVTISCRASQNIGTWLAWYQQKPGKAPKLLISKASSLESGVPSRFSGSGSGTDFTLTISSLQPDDFATYYCQQYDSYLFTFGQGTKLEIR
In assay [4], B7 displayed an IC50 of 2.8 nM. Also, the EC50 with RBD-mFc [5] came to 1.5 nM; in the assay with S1-mFc [6], 2.9 nM.

B8: STE73-2G8 (antibody, V domains shown)
VH: QVQLVQSGGGLVKPGGSLRLSCAASGITVSSNYMSWVRQAPGKGLEWVSILYSGGTTFYTDSVKGRFTISRDNSKNTLHLQMNSLRAEDTAVYYCARWSGTYYDYWGQGTLVTVSS
VL: SSELTQDPAVSVALGQTVRITCQGDSLRSYYASWYQQKPGQAPVLVIYGKNNRPSGIPDRFSGSSSGNTASLTITGAQAEDEADYYCNSRDSTNDPVLFGAGTKLTVL
As for B8, the EC50 in the assay with RBD-mFc [1] is 0.7 nM; in the assay with S1-mFc [2] it was 1 nM. In assay [3], the half-maximal inhibitory concentration (IC50) turned out to be 2.8 nM.

B9: STE70-1E12 (antibody, V domains shown)
VH: QMQLVQSGAEVKKPGASVKVSCKASGYTFTGYYMHWVRQAPGQGLEWMGRINPNSGGTNYAQKFQGRVTMTRDTSTSTAYMELSRLRSDDTAVYYCVRDGYNFNNWFDPWGQGTLVTVSS
VL: NFMLTQPHSVSGSPGETITISCTGSGGSIASNYVQWYRQRPGSAPTIVIYEDTQRPSGVPDRFSGSIDSSSNSASLTISGLKTEDEADYYCQSSESTNHVMFGGGSKLTVL
In turn, B9 came in with a half-inhibitory concentration (IC50) in assay [4] of 3.2 nM. Also, the EC50 with RBD-mFc [5] stood at 1.1 nM; with S1-mFc [6] it was 1.5 nM.

B10: STE73-2E9 (antibody, V domains shown)
VH: QVQLVQSGAEVKKPGASVKVSCKASGYTFTSYGISWVRQAPGQGLEWMGWISAYNGNTNYAQKLQGRVTMTTDTSTSTAYMELRSLRSDDTAVYYCARGKFDYWGQGTLVTVSS
VL: QSVLTQPPSVSEAPSQRVTISCSGSSSNIGNNAVNWYQQLPGKAPKLLIYYDDVLPSGVSDRFSGSKSGTSASLAISGLQSGDEADYYCAAWDDSLSGVVFGGGTKLTVL
In the case of B10, the EC50 with RBD-mFc [1] came out at 0.7 nM; in the assay with S1-mFc [2] it was 0.6 nM. The molecule also displayed an IC50 in assay [3] of 3.4 nM.

B11: STE72-4E12 (antibody, V domains shown)
VH: QVQLVQSGAEVKKPGASVKVSCKASGYTFTSYYMHWVRQAPGQGLEWMGIINPSGGSTSYAQKFQGRVTMTRDTSTSTVYMELSSLRSEDTAVYYCARDLSGGLDYWGQGTLVTVSS
VL: ETTLTQSPATLSVSPGERVTLACRAGQTISSKLAWYRQKPGQAPSLLIYDASTRATGVPARFSGSGSGTEFTLTISSLQSEDFAVYYCQQYSDWPPTFGQGTKVEIK
B11 displayed an IC50 in assay [4] of 3 nM. Also, the EC50 turned out to be 11.6 nM with S1-, 4.7 nM in the assay with RBD-mFc [5] and 10.4 nM with S1-mFc [6].

B12: STE73-6C1 (antibody, V domains shown)
VH: QVQLVQSGGGVVQPGRSLRLSCAASGFTFSSYAMHWVRQAPGKGLEWVAVISYDGSNKYYADSVKGRFTISRDNSKNTLYLQMNSLRAEDTAVYYCARSYVGGMDVWGQGTTVTVSS
VL: QLVLTQSPSVSGAPGQSVTISCTGTDSNIGAGYNVHWYQQLPGAAPKLIISYTDNRPSGVPDRFSGSKSGTSASLAITGLQAEDEADYYCQSSDRTLVGSLFGTGTKVTVL
As to B12, the EC50 in the assay with RBD-mFc [1] worked out at 2 nM; with S1-mFc [2], 2.8 nM. In addition, the 50% inhibitory concentration (IC50) in assay [3] was determined as 4.1 nM.

B13: STE73-9G3 (antibody, V domains shown)
VH: QVQLQESGGGLVQPGGSLRLSCAASGFTFSSYAMSWVRQAPGKGLEWVSAISGSGGSTYYADSVKGRFTISRDNSKNTLYLQMNSLRAEDTAVYYCARDLVLGSGSSNDWGRGTLVTVSS
VL: QPVLTQPPSVSGAPGQSVTISCTGTDSNIGAGYNVHWYQQLPGAAPKLIISYTDNRPSGVPDRFSGSKSGTSASLAITGLQAEDEADYYCQSSDRTLVGSLFGTGTKVTVL
Turning to B13, the EC50 in the assay with RBD-mFc [1] was 1.4 nM; with S1-mFc [2], 1.6 nM. Also, in assay [3], the IC50 worked out at 3.4 nM.
